Test results taken from patent US20100261620A1 (published 2010).
Where a chain is given by its changes, count along the chain named. Each block holds one binder with its values, some of them ahead of it.

Experiments:
[1] = biological target: T1, human CD147 His-tagged N-terminal domain (human, UniProt P35613-2 20-117); assay: SPR, CD147 coupled to the surface
T1 construct: also called N-terminal human CD147; EMMPRIN; not shown: His tag
T1 chain: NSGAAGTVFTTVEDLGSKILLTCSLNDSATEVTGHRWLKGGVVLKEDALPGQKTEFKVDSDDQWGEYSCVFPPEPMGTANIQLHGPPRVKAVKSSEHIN

[2] = biological target: IL-13 (Homo sapiens (Human), UniProt P35225 35-146, limits assumed); assay: Biacore
IL-13, sequence (P35225 35-146 limits assumed): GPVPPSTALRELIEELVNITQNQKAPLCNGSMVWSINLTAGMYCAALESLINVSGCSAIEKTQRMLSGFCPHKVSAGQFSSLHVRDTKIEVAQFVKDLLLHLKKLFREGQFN

Kd [2]: 0.04 nM
koff [2]: 5.3e-05 s⁻¹
kon [2]: 1.32e+06 M⁻¹ s⁻¹
B5: M442 (antibody, V domains shown)
VH: QVTLKESGPVLVKPTETLTLTCTVSGFSLSTYGMGVGWIRQPPGKALEWLAHIWWDDVKRYNPALKSRLTISKDTSKSQVVLTMTNMDPVDTATYYCARMGSDYDVWFDYWGQGTLVTVSS
VL: EIVLTQSPATLSLSPGERATLSCRASKSISKYLAWYQQKPGQAPRLLIYSGSTLQSGIPARFSGSGSGTDFTLTISSLEPEDFAVYYCQQQDGPYTFGQGTKLEIK

Kd [2]: 0.008 nM
koff [2]: 8e-06 s⁻¹
kon [2]: 1.03e+06 M⁻¹ s⁻¹
B7: M460 (anti-IL-13) (antibody, V domains shown)
VH: B5 VH
VL: B5 VL with Q91H, G93Y

Kd [2]: 0.021 nM
koff [2]: 3.9e-05 s⁻¹
kon [2]: 1.86e+06 M⁻¹ s⁻¹
B8: M480 (antibody, V domains shown)
VH: B5 VH
VL: B5 VL with G93S

Kd [2]: 0.315 nM
koff [2]: 0.000321 s⁻¹
kon [2]: 1.02e+06 M⁻¹ s⁻¹
B12: M476 (antibody, V domains shown)
VH: B5 VH
VL: EIVLTQSPATLSLSPGERATLSCRASKSISKYLAWYQQKPGQAPRLLIYSGSTLQSGIPARFSGSGSGTDFTLTISSLEPEDFAVYYCQQHSVGPYTFGQGTKLEIK
notes: anti-IL-13, human IgG1

Kd [2]: 0.259 nM
koff [2]: 0.000375 s⁻¹
kon [2]: 1.44e+06 M⁻¹ s⁻¹
B15: M472 (antibody, V domains shown)
VH: B5 VH
VL: B12 VL with H91P, S92L, V93D, G94S
notes: anti-IL-13, human IgG1

Kd [2]: 0.296 nM
koff [2]: 0.0003 s⁻¹
kon [2]: 1.02e+06 M⁻¹ s⁻¹
B18: M482 (antibody, V domains shown)
VH: B5 VH
VL: B12 VL with S92L, V93D, G94S
notes: anti-IL-13, human IgG1; printed changes are the same as for M470

Kd [2]: 0.225 nM
koff [2]: 0.000219 s⁻¹
kon [2]: 970000 M⁻¹ s⁻¹
B20: M466 (antibody, V domains shown)
VH: B5 VH
VL: B12 VL with S92D, V93W, G94S
notes: anti-IL-13, human IgG1

Kd [2]: 0.208 nM
koff [2]: 0.000247 s⁻¹
kon [2]: 1.19e+06 M⁻¹ s⁻¹
B22: M478 (antibody, V domains shown)
VH: B5 VH
VL: B12 VL with S92N, V93H
notes: anti-IL-13, human IgG1

Continued, binder first:

B1: 4A5 Fab (Fab, V domains shown)
VH: EVQLQQSGPELVKPGASVKISCKASGYTFTDYYMNWVKQSHGKSLEWIGGINPNNGGTSYNQKFKGKATLTVDKSSSTAYMELRSLTSEDSAVYYCARNDGYRGYAMDYWGQGTSVTVSS
VL: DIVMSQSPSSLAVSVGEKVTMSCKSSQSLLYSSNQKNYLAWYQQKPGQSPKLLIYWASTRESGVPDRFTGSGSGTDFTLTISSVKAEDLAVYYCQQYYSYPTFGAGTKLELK
notes: mouse variable domains; also called 4A5 chimera; chimeric 4A5 Fab
Kd [1]: 120 nM

B2: M464 (antibody, V domains shown)
VH: B5 VH
VL: B12 VL with S92E, V93W
notes: anti-IL-13, human IgG1
Kd [2]: 0.055 nM
koff [2]: 7.1e-05 s⁻¹
kon [2]: 1.29e+06 M⁻¹ s⁻¹

B3: M1292 (antibody, V domains shown)
VH: B5 VH with M34E, M100L
VL: B5 VL with Q91H, G93Y
Kd [2]: 0.008 nM
koff [2]: 8e-06 s⁻¹
kon [2]: 1.05e+06 M⁻¹ s⁻¹

B4: M1295 (antibody, V domains shown)
VH: B5 VH with M34V, M100L
VL: B5 VL with Q91H, G93Y
Kd [2]: 0.015 nM
koff [2]: 1.8e-05 s⁻¹
kon [2]: 1.2e+06 M⁻¹ s⁻¹

B6: M1375 (antibody, V domains shown)
VH: B5 VH with M34Q, M100L
VL: B5 VL with Q91H, G93Y
Kd [2]: 0.024 nM
koff [2]: 2.7e-05 s⁻¹
kon [2]: 1.1e+06 M⁻¹ s⁻¹

B9: M1286 (antibody, V domains shown)
VH: B5 VH with M34S, M100L
VL: B5 VL with Q91H, G93Y
Kd [2]: 0.009 nM
koff [2]: 1.2e-05 s⁻¹
kon [2]: 1.28e+06 M⁻¹ s⁻¹

B10: M1268 (antibody, V domains shown)
VH: B5 VH with M34V, M100L
VL: B12 VL with S92N, V93E, G94Y
notes: anti-IL-13, human IgG1; text gives the Met positions as 34 and 100; copies: 2 + 2
Kd [2]: 0.621 nM
koff [2]: 0.001 s⁻¹
kon [2]: 1.61e+06 M⁻¹ s⁻¹

B11: M470 (antibody, V domains shown)
VH: B5 VH
VL: B12 VL with S92L, V93D, G94S
notes: anti-IL-13, human IgG1
Kd [2]: 0.239 nM
koff [2]: 0.000311 s⁻¹
kon [2]: 1.3e+06 M⁻¹ s⁻¹

B13: M475 (antibody, V domains shown)
VH: B5 VH
VL: B12 VL with S92L, V93M
notes: anti-IL-13, human IgG1
Kd [2]: 0.187 nM
koff [2]: 0.000213 s⁻¹
kon [2]: 1.14e+06 M⁻¹ s⁻¹

B14: M467 (antibody, V domains shown)
VH: B5 VH
VL: B12 VL with V93W, G94A
notes: anti-IL-13, human IgG1
Kd [2]: 0.452 nM
koff [2]: 0.000455 s⁻¹
kon [2]: 1e+06 M⁻¹ s⁻¹

B16: M479 (antibody, V domains shown)
VH: B5 VH
VL: B12 VL with H91P, S92L, V93D, G94T
notes: anti-IL-13, human IgG1
Kd [2]: 0.192 nM
koff [2]: 0.00024 s⁻¹
kon [2]: 1.25e+06 M⁻¹ s⁻¹

B17: M469 (antibody, V domains shown)
VH: B5 VH
VL: B12 VL with S92D, V93W, G94E
notes: anti-IL-13, human IgG1
Kd [2]: 0.1 nM
koff [2]: 0.000143 s⁻¹
kon [2]: 1.43e+06 M⁻¹ s⁻¹

B19: M465 (antibody, V domains shown)
VH: B5 VH
VL: B12 VL with S92D, V93N, G94S
notes: anti-IL-13, human IgG1
Kd [2]: 0.306 nM
koff [2]: 0.000336 s⁻¹
kon [2]: 1.1e+06 M⁻¹ s⁻¹

B21: M477 (antibody, V domains shown)
VH: B5 VH
VL: B12 VL with V93S
notes: anti-IL-13, human IgG1
Kd [2]: 0.495 nM
koff [2]: 0.00048 s⁻¹
kon [2]: 970000 M⁻¹ s⁻¹

B23: M468 (antibody, V domains shown)
VH: B5 VH
VL: B12 VL with S92F, V93W
notes: anti-IL-13, human IgG1
Kd [2]: 0.094 nM
koff [2]: 0.0001 s⁻¹
kon [2]: 1.06e+06 M⁻¹ s⁻¹

B24: M471 (antibody, V domains shown)
VH: B5 VH
VL: B12 VL with H91P, S92I, V93D, G94A
notes: anti-IL-13, human IgG1
Kd [2]: 0.253 nM
koff [2]: 0.000364 s⁻¹
kon [2]: 1.44e+06 M⁻¹ s⁻¹

B25: M474 (antibody, V domains shown)
VH: B5 VH
VL: B12 VL with S92D, V93L
notes: anti-IL-13, human IgG1
Kd [2]: 0.365 nM
koff [2]: 0.000348 s⁻¹
kon [2]: 950000 M⁻¹ s⁻¹

B26: M473 (antibody, V domains shown)
VH: B5 VH
VL: B12 VL with S92D, V93R, G94D
notes: anti-IL-13, human IgG1
Kd [2]: 0.312 nM
koff [2]: 0.000403 s⁻¹
kon [2]: 1.29e+06 M⁻¹ s⁻¹
